Data from paper doi:10.1101/871707 (bioRxiv, 2019).

Biological target: the molecule itself
Experiment: cryo-EM structure

B1: human SEMA6A soluble recombinant extracellular domain (receptor)
chain: GFPEDSEPISISHGNYTKQYPVFVGHKPGRNTTQRHRLDIQMIMIMNGTLYIAARDHIYTVDIDTSHTEEIYCSKKLTWKSRQADVDTCRMKGKHKDECHNFIKVLLKKNDDALFVCGTNAFNPSCRNYKMDTLEPFGDEFSGMARCPYDAKHANVALFADGKLYSATVTDFLAIDAVIYRSLGESPTLRTVKHDSKWLKEPYFVQAVDYGDYIYFFFREIAVEYNTMGKVVFPRVAQVCKNDMGGSQRVLEKQWTSFLKARLNCSVPGDSHFYFNILQAVTDVIRINGRDVVLATFSTPYNSIPGSAVCAYDMLDIASVFTGRFKEQKSPDSTWTPVPDERVPKPRPGCCAGSSSLERYATSNEFPDDTLNFIKTHPLMDEAVPSIFNRPWFLRTMVRYRLTKIAVDTAAGPYQNHTVVFLGSEKGIILKFLARIGNSGFLNDSLFLEEMSVYNSEKCSYDGVEDKRIMGMQLDRASSSLYVAFSTCVIKVPLGRCERHGKCKKTCIASRDPYCGWIKEGGACSHLSPNSRLTFEQDIERGNTDGLGDCHNSFVALNGHSSSLLPSTTTSDSTAQEGYESRGGMLDWKHLLDSPDSTDPLGAVSSHNHQDKKGVIRESYLKGHDQLVPVT
notes: also called SEMA6A rECD; recombinant SEMA6A ectodomain
Question: For B1, which “stoichiometry N” value is on record?
Answer: 2
